In article PMC10460880, “Cathepsin K‐Activated Probe for Fluoro‐Photoacoustic Imaging of Early Osteolytic Metastasis” (Advanced Science, 2023):

Columns and labels:
cathepsin K (CTSK) = molecular target: T1, cathepsin K (CTSK) (Homo sapiens, UniProt P43235); assay: Kinetic assay (Michaelis-Menten) of probe cleavage by CTSK; type: biochemical
T1 sequence (P43235 115-329): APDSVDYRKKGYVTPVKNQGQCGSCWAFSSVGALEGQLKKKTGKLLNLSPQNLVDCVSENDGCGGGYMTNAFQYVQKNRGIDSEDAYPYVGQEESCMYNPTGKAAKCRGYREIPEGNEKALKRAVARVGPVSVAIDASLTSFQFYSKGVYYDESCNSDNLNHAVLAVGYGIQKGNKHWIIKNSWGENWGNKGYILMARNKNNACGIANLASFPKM
Experimental: In vitro analysis of cathepsin K (CTSK) activation, selectivity, and sensitivity studies.
Probe CTSK-APPA, D-CTSK-APPA, or CTSK-APP (10 μM) was incubated with CTSK in MES buffer (50 mM, pH 6.0) containing 0.1% DMSO, 2 mM ethylene diamine tetraacetic acid (EDTA), 4 mM dithiothreitol (DTT) and 0.15% chondroitin sulfate (CS) at 37 °C for 1 h. After incubation at the indicated time, UV-Vis spectra, fluorescence spectra, fluorescence images, and PA images of the solutions were recorded. […]
PA images were captured by using a MSOT scanner with
Kinetic assay. Different concentrations of CTSK-APPA or CTSK-APP (1, 2, 5, 10, 20, or 50 μM) were incubated with CTSK (100 ng/mL) in MES buffer containing 0.1% DMSO, 2mM EDTA, 4mM DTT, and 0.15% CS at 37 °C for 5 min. Fluorescence intensities of solution were measured for quantification analyses by a microplate reader (BioTek, Synergy 2) with excitation at 690 nm and emission at 720 nm. The kinetic parameters were calculated according to the Michaelis-Menten equation shown below: V = Vmax×[S]/(Km + [S]), where V is initial velocity, and [S] is substrate concentration.
(1 picture or pasted object on this page, not shown here)

[1] = Hydroxyapatite (HA) adsorption assay (in vitro bone binding); conditions: probe 10 μM, HA 10 mg/mL, 37 °C, fluorescence of precipitate
Experimental: In Vitro bone-binding and CTSK activation assay. Hydroxyapatite (HA) was used as a substitute for bone in vitro to evaluate the bone-binding ability of CTSK-APPA and CTSK-APP. CTSK-APPA or CTSK-APP (10 μM) was mildly stirred with HA (10 mg/mL) at 37 °C for different times (0, 10, 30, 60, and 120 min). The mixture was centrifugated at 4000 g for 5 min and then washed with a 10-fold excess of PBS (1×) three times. The efficiency of HA binding was determined from the fluorescence intensities of the precipitation according to the equation: (F – Fblank)/(F0 – Fblank)*100%, where F represents the fluorescence intensity of the precipitation incubated with HA for a determined time, and Fblank represents the blank fluorescence intensity. […]

[2] = Renal clearance efficiency study; type: in vivo, BALB/c nude mice; conditions: mice, i.v. 50 μM, 200 μL; urine, UV absorbance at 615 nm; n = 3
Experimental: Bone marrow toxicity analysis. The bone marrow toxicity of CTSK-APPA and CTSK-APP was assessed by blood analyses in mice. SPF grade 4-week-old BALB/c nude mice were intravenously injected with CTSK-APPA(50 μM, 200 μL) or saline (200 μL). The blood samples were collected in anticoagulant tubes at 24 h post-injection and stored at 4°C. The red blood count (RBC) and white blood count (WBC) were further measured.
Renal clearance efficiency studies. SPF grade 4-week-old BALB/c nude mice were intravenously injected with CTSK-APPA or CTSK-APP (50 μM, 200 μL) and placed in metabolic cages. The urine was collected at 3, 6, and 24 h post-injection, and then centrifuged at 5000 r.p.m. for 5 min. The supernatants containing excreted probes were quantified by using a UV-vis absorption spectrometer. […]
In vivo Bioluminescence, DR, CT, and MR imaging. […] Then BL imaging was recorded on an IVIS Spectrum imaging system at 10 min post-injection under anesthesia using isoflurane. All data were analyzed with the Living Image software. DR, CT, and MR imaging were recorded on an IVIS Spectrum imaging system, a single-photon emission computed tomography imaging system, and a preclinical magnetic resonance solution system, respectively.
Real-time tumor imaging. […] Fluorescence and PA images were acquired at 0, 1, 2, 4, 8, 12, and 24 h post-injection. […]
Histology. […] Images were captured by using a fluorescence microscope. […]

[3] = Histology (H&E) of organs after injection; type: in vivo, mice; conditions: 24 h post intravenous administration
[4] = Fluorescence quantum yield and molar extinction coefficient; type: physicochemical; conditions: MES buffer 50 mM pH 6.0, 0.1% DMSO
Experimental: Determination of the fluorescence quantum yield and molar extinction coefficient.
Fluorescence quantum yield (Φf) was determined by using ICG (Φf = 0.13 in DMSO) as a fluorescence standard. The quantum yield was calculated using the following equation: ΦF(X) = ΦF(S) (ASFX / AXFS) (nX / nS)2, Where ΦF is the fluorescence quantum yield, A is the absorbance at the excitation wavelength, F is the area under the corrected emission curve, and n is the refractive index of the solvents used. Subscripts S and X refer to the standard and to the unknown, respectively. The excitation wavelength was at 690 nm while keeping the absorption below 0.05. To calculate the molar extinction coefficient (ε), the absorption at 690 nm of different concentrations of the CTSK-APPA before or after CTSK cleavage (0, 0.5, 1, 2, 5, 10 μM) was measured. According to the Lambert-Beer law, the extinction coefficient was the slope of the fitted curve between concentration and absorption. Both fluorescence quantum yield and extinction coefficient were measured in MES buffer (50 mM, pH 6.0) containing 0.1% DMSO. […]

In the case of Cbz‐Leu‐Arg‐OH [CTSK-APPA], the “catalytic efficiency (kcat/Km)” value (cathepsin K (CTSK); from Km and kcat) is reported as 890000 M⁻¹ s⁻¹, the Km (cathepsin K (CTSK); probe 1-50 μM, CTSK 100 ng/mL, MES buffer, 37 °C, 5 min, Ex 690/Em 720 nm, n = 3, read-out: Michaelis–Menten constant (Km)) is reported as 22.9 µM and the “catalytic rate constant (kcat)” value (cathepsin K (CTSK); probe 1-50 μM, CTSK 100 ng/mL, MES buffer, 37 °C, 5 min, n = 3) is reported as 20.4 s⁻¹. For the same substance, the “HA-binding efficiency after 30 min” value [1] was “approximately 96%”, the “renal clearance efficiency 24 h post-injection” value [2] was 58.4% and the “histological changes (H&E) after injection” value [3] was “no histological changes”. For the same substance, the “fluorescence quantum yield (Φf) after CTSK cleavage” value ([4]; ICG standard, Ex 690 nm) was 3.5%, the “fluorescence quantum yield (Φf) before CTSK cleavage” value ([4]; ICG standard, Ex 690 nm) was 0.5% and the “molar extinction coefficient ε after CTSK cleavage” value ([4]; absorption at 690 nm, 0-10 μM) was 50230 M⁻¹ cm⁻¹. The “molar extinction coefficient ε before CTSK cleavage” value ([4]; absorption at 690 nm, 0-10 μM) was 28580 M⁻¹ cm⁻¹.
